Measured values published in the DeepSol protein solubility set.

Experiment: soluble on expression in E. coli; label from the status in PepcDB or PDB records

Question: For “MDFMISHFCDEQNHQPLYKTRRQSISDSKNGPTLLSSSLPTNDECSDSDTENRLPPETELGNIEYKAKLVNPTTSRIQHLITQMKWRLREGQGEAIYEIGVEDGGIMSGLTDEELNDSLRTLRTMAQALGASMVILTEKDVTVKGSNSRRTVVEVLVRKVPESQQFIEVRLAVVGGCDVGKSTLCGVLTQGCLDDGNGKARIGIFRFPHEVRTGKTSSVCNDVIGFDNRGKLVNYAQNSLEEMVEKSSKLVTLIDLAGDAKYQKTTIHGLTGYTPHFACLVVAADRGITWATREHLGLIAALNIPMFVLITKMDLVDRQGLKKIIKDVSNLVAKAGMTAREKRVKTKRDAVKAAQELCVGSIVPVLAVSSVSGEGFRCLRTLLNCLSTAGTAESRIQLVGLPAFFTIEELYNVPHVGQVVGGMLSEGQLHEGADVLVGPMKDGTFEKITVGSIRRSRQAVGCVNPGEAASISLNLPDGVSLRRGMVLAEIDHQPPVCYEFTANLLLLCHSTKYICEGFQATVFIGSVCTTAIITHIDDADCIRPGKWAVVKMCFAYQPEVIREGSPIILRQGKTKGMGEVLKVFPCTQ”, which “soluble on expression in E. coli” value is on record?
Answer: not soluble

Question: With “MDGCMPGISATTLLKQQNIPESFKFYFKRRFAPLVTDGPHLNELVRPRLKIAIVTETWPPEINGVAMSLLQLCKGLQEQGHKILLVRPQQKRECYEFSPHKECLVHAQRIPKYPELQFGWPQYLKVAKAFEDFTPDVVHVVTEGPLGLTALYAARAKQIPVSSGFHSPFQDFSRFFDLAFLLKPIQGYLRWFHNHTQITCVPSQDTEKALRAFGVTCPLSIVGRGVDPKFFSPDFRNEALRERWKAASDTVVMLYVGRLSPEKEIHILIQNYAAMRRVEPRNVKLVIVGSGPDRARLEALDETQEVIFMGSLSGKNLAEAYASADVFVFASQVETFGNVVLEAMASGLPVVAYDYACAHQYIQHGVTGWLSPLGQPATFIQAMRQLSGVKQLRQMGQRARQCVEHDGWQYPVQQMEQALYRVVKEPYMKLEHHHHHH” as the sequence, how does the “soluble on expression in E. coli” value read?
Answer: not soluble

Question: With “MDGIFAGIICNQANRCLTWTSQQLFSEKISGAEGTKLDDEFLDMERKIDVTNKVVAEILSKTTEYLQPNPAYRAKLGMLNTVSKIRGQVKTTGYPQTEGLLGDCMLKYGKELGEDSTFGNALIEVGESMKLMAEVKDSLDINVKQTFIDPLQLLQDKDLKEIGHHLKKLEGRRLDYDYKKKRVGKIPDEEVRQAVEKFEESKELAERSMFNFLENDVEQVSQLAVFIEAALDYHRQSTEILQELQSKLQMRISAASSVPRREYKPRPVKRSSSELNGVSTTSVVKTTGSNIPMDQPCCRGLYDFEPENQGELGFKEGDIITLTNQIDENWYEGMIHGESGFFPINYVEVIVPLPQ” as the sequence, how does the “soluble on expression in E. coli” value read?
Answer: soluble

Question: For “MDGSLSRPAVLDRAARQKRGTMARPQSKKKQTQVVRRPRRRGRLVPPGRLIAGRDFPEFLQQAVLLSGSLRQAARKLRVSYSTLRGWFGRRCDEPPEGGGDLLAEHAAAIRAELDAAAERLAMVRGQLDALERGE”, which “soluble on expression in E. coli” value is on record?
Answer: not soluble

Question: Which “soluble on expression in E. coli” value does the source give for “MDHLKHLQQLQNIERIVLSGIVLANHKIEEVHSVLEPSDFYYPPNGLFFEIALKLHEEDCPIDENFIRQKMPKDKQIKEEDLVAIFAASPIDNIEAYVEEIKNASIKRKLFGLANTIREQALESAQKSSDILGAVEREVYALLNGSTIEGFRNIKEVLESAMDLITENQRKGSLEVTGIPTGFVQLDNYTSGFNKGSLVIIGARPSMGKTSLMMNMVLSALNDDRGVAVFSLEMSAEQLALRALSDLTSINMHDLESGRLDDDQWENLAKCFDHLSQKKLFFYDKSYVRIEQIRLQLRKLKSQHKELGIAFIDYLQLMSGSKATKERHEQIAEISRELKTLARELEIPIIALVQLNRSLENRDDKRPILSDIKDSGGIEQDADIVLFLYRGYIYQMRAEDNKIDKLKKEGKIEEAQELYLKVNEERRIHKQNGSIEEAEIIVAKNRNGATGTVYTRFNAPFTRYEDMPIDSHLEEGQETKVDYDIVTT” here?
Answer: not soluble

Question: For “MDIETIVNEFETRAGTLLRYYTGLLERSKVQPCCFKLYNDPFDMVYVMMNSKLFSHVYIKDCKVRQSFELASPKHTEGLIRSIEGHYVGYELHDGKQLSISDMMASQLFEDEYFMYGLQTYAESNNSDVFKCLENGFDTDTLEGIQSSNTDVIANIEMLYQLATGINEPVPELVEGLKLVTEFVQDENATQEDYKALERKLNDLKASYYSLSKLAAALEHHHHHH”, which “soluble on expression in E. coli” value is on record?
Answer: soluble

Question: With “MDIKVHFHDFSHVRIDCEESTFHELRDFFSFEADGYRFNPRFRYGNWDGRIRLLDYNRLLPFGLVGQIKKFCDNFGYKAWIDPQINEKEELSRKDFDEWLSKLEIYSGNKRIEPHWYQKDAVFEGLVNRRRILNLPTSAGRSLIQALLARYYLENYEGKILIIVPTTALTTQMADDFVDYRLFSHAMIKKIGGGASKDDKYKNDAPVVVGTWQTVVKQPKEWFSQFGMMMNDECHLATGKSISSIISGLNNCMFKFGLSGSLRDGKANIMQYVGMFGEIFKPVTTSKLMEDGQVTELKINSIFLRYPDEFTTKLKGKTYQEEIKIITGLSKRNKWIAKLAIKLAQKDENAFVMFKHVSHGKAIFDLIKNEYDKVYYVSGEVDTETRNIMKTLAENGKGIIIVASYGVFSTGISVKNLHHVVLAHGVKSKIIVLQTIGRVLRKHGSKTIATVWDLIDDAGVKPKSANTKKKYVHLNYLLKHGIDRIQRYADEKFNYVMKTVNLLEHHHHHH” as the sequence, how does the “soluble on expression in E. coli” value read?
Answer: soluble

Question: Which “soluble on expression in E. coli” value does the source give for “MDIKVIREKLTLTTSITSESVAEYEHDVDECCRLLEHKLELEMEKKLQLSNRIDVVQSQVTELWDRVDKARRRESDISCRVTAWAQHLSEMMNEVKLKKAKMGTTMEISATLSAEIQESLDLLAEKRVIVQRMREEIDYRRHLHKQQLKDLKLDCDREEEKCEYWNDKSAEIEKVVEMLKEQRKSLGERVEEEKRMEQEQKKMLEELEMLLKKTGKKRQILDENANLVASFSSLTEESS” here?
Answer: not soluble

Question: For “MDILKKIEKYREEEQRLKWEGTFADYLEIIKENPMVAQSAHSRVFNMIKDSGIEEIDGRKKYSFFDRELFGLEESLERLVEEYFHPAAKRLDVRKRILLLMGPVSGGKSTLVTMLKKGLEAYTLTDNGAVYAIKGCPMHEDPLHLIPHHLRDDFYREYGIRIEGSLSPLNVMRLEEEYGGRIEDVKVERIFFSEDKRTGIGTFSPSDPKSQDIADLTGSIDFSTIAEYGSESDPRAYRFDGELNKANRGMMEFQEMLKCDEKFLWHLLSLTQEGNFKAGRFALISADELIVAHTNETEYRSFISNKKNEALHSRIIVMPVPYNLKVSEEERIYEKMIAESDVADVHIAPHTLKVAAMFSILTRLKEPKRSD”, which “soluble on expression in E. coli” value is on record?
Answer: not soluble

Question: Which “soluble on expression in E. coli” value does the source give for “MDILVREVDVSEYVSIVVNRDSFNTIEYFICAPFSGQRLRGTARPGQTVVFRQQNLTNVVEKLGKNSFRCIVKADELPKSFQKSQEFVVARGRFQQFLKVAEGSRLSKLEPMSDTEMASNAIKDVREMAEQDLIGSRKTPFYEMFTRFAQQKVTSSDQEDTIENLHTRNNYEDIFDVLKSNLNKNEQLNDIDGRNNQKSDKMTEVDQTDKMHLTELEVKQKV” here?
Answer: not soluble

Question: For “MDIMLVLWNGTPPMTRPEIEKVINTKKKLASTTILSLLTRLESKNFVEVTKQGKLNLYTPLVSQSDYQAHESQSVLEKLYGNSLKKFVTSLYQGKKISSEEIHELSDFLKELEDGEE”, which “soluble on expression in E. coli” value is on record?
Answer: not soluble

Question: For “MDISTNKANYKPAVSQAFDGQETQDGTNILILGSDQRVTQGSTDARTDTIMVVNVGNHAKKIKMVSFMRDTLINIPGYSYNDNSYDLKLNSAFNLGEQEDHHGAEYVRRALKHNFDIDIKYYVMVDFETFAEAIDTLFPNGVKIDAKFATVGGVAVDSVEVPDDLRMKNGVVPNQTIEVGEQRMDGRTLLNYARFRKDDEGDFGRTVRQQQVMSAVMSQIKDPTKLFTGSAAIGKIYALTSTNVSFPFVVKNGVSVLGSGKNGVEHVTIPENGDWVDEYDMYGGQALYIDFDKYQKTLAKLGLRLEHHHHHH”, which “soluble on expression in E. coli” value is on record?
Answer: soluble

Question: Which “soluble on expression in E. coli” value does the source give for “MDKFRVQGRTRLSGEVTISGAKNAALPILFAALLAEEPVELQNVPKLKDIDTTIKLLSQLGTKIERNNGSVFVDASAVNEFCAPYDLVKTMRASIWALGPLVARFGQGQVSLPGGCAIGARPVDLHITGLEQLGAEIKLEEGYVKASVNGRLKGAHIVMDKVSVGATVTIMSAATLAEGTTVIENAAREPEIVDTANFLNTLGAKISGAGTDRITIEGVTRLGGGVYRVLPDRIETGTFLVAAAISGGKVVCRQTRPDTLDAVLAKLREAGADIEVGDDWISLDMQGKRPKAITFRTAPHPGFPTDMQAQFSLLNLVAEGTGVITETIFENRFMHVPELIRMGAHAEIESNTVICYGVEQLSGAQVMATDLRASASLVLAGCIAEGVTIVDRIYHIDRGYERIEDKLRALGAKIERVKGE” here?
Answer: not soluble

Question: For “MDKKELFDALDDFSQQLLVTLADVEAIKKNLKSLVEENTALRLENSKLRERLGEVEADAPVKAKHVRESVRRIYRDGFHVCNDFYGQRREQDEECMFCDELLYRE”, which “soluble on expression in E. coli” value is on record?
Answer: not soluble

Question: For “MDKKELVEKIALNTLVFETLGQPEKEREFTIQDLRRWGFDLILGKKNGVRTFFASQAGREVGDKWEEGGATYEIEEILLELPENKKLFAHIETSEGVAYIVAELREGKENLEILRTPAPTLLMAFFKKHRLHELANNLKSVGVITEFYKQRGRESLPLPYKKLPLVARDFLERAKKVEKMAGFGRVALAYFGKTREKDNRFRVSWLLPTIALFDIDISEKANTALEEFK”, which “soluble on expression in E. coli” value is on record?
Answer: soluble

Question: With “MDKKILVVDDEKPIADILEFNLRKEGYEVHCAHDGNEAVEMVEELQPDLILLDIMLPNKDGVEVCREVRKKYDMPIIMLTAKDSEIDKVIGLEIGADDYVTKPFSTRELLARVKANLRRQ” as the sequence, how does the “soluble on expression in E. coli” value read?
Answer: soluble

Question: For “MDKKTIYFICTGNSCRSQMAEGWGKEILGEGWNVYSAGIETHGVNPKAIEAMKEVDIDISNQTSDLIDNDILKQSDLVVTLCSDADNNCPILPPNVKKEHWGFDDPAGKEWSEFQRVRDEIKLAIEKFKLR”, which “soluble on expression in E. coli” value is on record?
Answer: soluble

Question: For “MDKLKFGLVSLGCDKNRVDSEIILGSMNRDYEIVNDPREADVILVNTCGFIESAKQESINTILEMNKYKEKYNCKMLIATGCLTQRYGKELKELVPEIDAILGVNDYKSLDDAIEDFFNLGKKDIYCNYSDQSINEGKRIITTGEYSSYVRISEGCNNSCSYCIIPKIRGKYRSRQFENIIDEVRELSENGTKEVILIAQDTTRYGVDLYGRKRLHELLKEMSLIQGIEWIRIMYCYPEEITEELIEEIASNEKVCNYIDMPIQHISDNILKNMFRKTRKSEILDKVEKIRKKVPNIAIRTSLIVGFPGETEGDFNELCDFVKDANINNLGVFRYSREEGTKAALMPMQIADTVKEKREEDIMLIQQQVSKNLNAKKIGKVYKVIVEGFNGDYWYGRNFEMAPEIDGKVFFKSQSEIKVGSFINIKITENLEYDLIGVVYNEFSKLEHHHHHH”, which “soluble on expression in E. coli” value is on record?
Answer: soluble

Question: For “MDKNINISVKVWRQKGPKEKGHFETYQLQNISQSASFLEMMDILNEQLIKEHKAPVVFDHDCREGICGMCSLYINGHPHGPDDSITTCQLHMRRFDDGDTITIEPWRSAGFPVIRDLMVDRSAYDKIIQSGGFVSVNTGGIPDANAIPISKKNADEAMDAAACIGCGACAAACKNGSAMLFVSAKVSQLALLPQGRIEAARRAKAMVAKMDELGFGNCTNTRACEMECPKNVSISHIARLNREYIVAKNRD”, which “soluble on expression in E. coli” value is on record?
Answer: not soluble

Question: For “MDKPILKDSMKLFEALGTIKSRSMFGGFGLFADETMFALVVNNQLHIRADQQTSSDFETQGLKPYVYKKRGFPVVTKYYAISSELWESSDRLIEVAKKSLENAKLEKEQQASTKPNRLKDLPNLRLATERMLKKAGIDSVAQLEEEGALSAYKAIRDTHSTTVSLELLWALEGAINGTHWSVVPQSRREELMNGLS”, which “soluble on expression in E. coli” value is on record?
Answer: soluble

Question: For “MDLDKLVHQPTRLELFAYLYRHGESSFGDLTDELDLTEGNLSSHLQRMEDADAVEVRKEFVDKRPHTTAVLTEDGEAMFEDHVQTLQGLIDGLELEHHHHHH”, which “soluble on expression in E. coli” value is on record?
Answer: not soluble

Question: Which “soluble on expression in E. coli” value does the source give for “MDLEISEKIKAYRQVMSAKSPSDAALTWNLFDLPNNMELARFFSTLSKEEMAKFEQCVFVDGQDPKTYIKMHKMVESTATIALSEEIENKRTILVAEPNRGGVSGHEGEMASTSSGFRDGYHPCMDHTSYAEGLFTESEKAWELERLLKLQKEIAEAKSKIVKQKKPSIKSA” here?
Answer: not soluble
